To fix the notation:
B1: LINE1-full (parent)
chain: UACGUAGGUGGUUUUCCCCUGAUAGUGCUAAGGGGGCCUGGAAGUUUGGACUGGGCAGAGCUCAACACAGCGUGGCAAAGUGGCUGUGGCUAGACUGCCUCUCUGGAUUCCUCGUCACUCAGCAGGGCAUCUCUGAGAGAAAUGCC

The variants in this series derive from B1. Put plainly: self-cleavage, relative activity (ratio to wild type); higher = more cleavage; in vitro, sequencing; the parent is a self-cleaving ribozyme.
UACGUAGGUGGUUUUCCCCAGAUAGUGCUAAGGGGGCCUGGAAGUUUGGACUGGGCAGAGCUCAACACAGCGUGGCAAAGUGGCUGUGGCUAGACUGCCUCUCUGGAUACCUCGUCACUCAGCAGGGCAUCUCUGAGAGAAAUGCC [U20A U109A]: the self-cleavage stood at 0.88.
Take UACGUAGGUGGUUUUCCCCAGAUAGUGCUAAGGGGGCCUGGAAGUUUGGACUGGGCAGAGCUCAACACAGCGUGGCAAAGUGGCUGUGGCUAGACUGCCUCUCUGGAUCCCUCGUCACUCAGCAGGGCAUCUCUGAGAGAAAUGCC [U20A U109C]: the self-cleavage was determined as 1.25.
As for UACGUAGGUGGUUUUCCCCAGAUAGAGCUAAGGGGGCCUGGAAGUUUGGACUGGGCAGAGCUCAACACAGCGUGGCAAAGUGGCUGUGGCUAGACUGCCUCUCUGGAUUCCUCGUCACUCAGCAGGGCAUCUCUGAGAGAAAUGCC [U20A U26A], the self-cleavage is 1.23.
UACGUAGGUGGUUUUCCCCAGAUAGUGCUAAGGGGGCCUGGAAGUUUGGACUGGGCAGAGCUCAACACAGCGUGGCAAAGUGGCAGUGGCUAGACUGCCUCUCUGGAUUCCUCGUCACUCAGCAGGGCAUCUCUGAGAGAAAUGCC [U20A U85A]: the self-cleavage was determined as 0.11.
With UACGUAGGUGGUUUUCCCCAGAUAGUGCUAAGGGGGCCUGGAAGUUUGGACUGGGCAGAGCUCAACACAGCGUGGCAAAGUGGCGGUGGCUAGACUGCCUCUCUGGAUUCCUCGUCACUCAGCAGGGCAUCUCUGAGAGAAAUGCC [U20A U85G], the self-cleavage was determined as 0.1.
Turning to UACGUAGGUGGUUUUCCCCAGAUAGUGCUAAGGGGGCCUGGAAGUUUGGACUGGGCACAGCUCAACACAGCGUGGCAAAGUGGCUGUGGCUAGACUGCCUCUCUGGAUUCCUCGUCACUCAGCAGGGCAUCUCUGAGAGAAAUGCC [U20A G58C], the self-cleavage was 0.08.
Consider UACGUAGGUGGUUUUCCCCAGAUAGUGCUAAGGGGGCCUGGAAGUUUGGACUGGGCAGAGCUCAACACAGCGUGGCAAAGUGGCUGUGGCUAGACUGCCCCUCUGGAUUCCUCGUCACUCAGCAGGGCAUCUCUGAGAGAAAUGCC [U20A U100C], for which the self-cleavage was 1.49.
The result for UACGUAGGUGGUUUUCCCCAGAUAGUGCUAAGGGGGCCUGGAAGUUUGGACUGGGCAGAGCUCAACACAGCGUGGCAAAGUGGCUGUGGCUAGACUGCCACUCUGGAUUCCUCGUCACUCAGCAGGGCAUCUCUGAGAGAAAUGCC [U20A U100A] reads 0.78; that for UACGUAGGUGGUUUUCCCCAGAUAGUGCUAAGGGGGCCUGGAAGUUUGGACUAGGCAGAGCUCAACACAGCGUGGCAAAGUGGCUGUGGCUAGACUGCCUCUCUGGAUUCCUCGUCACUCAGCAGGGCAUCUCUGAGAGAAAUGCC [U20A G53A], 1.01; that for UACGUAGGUGGUUUUCCCCAGAUAGUGCUAAGGGCGCCUGGAAGUUUGGACUGGGCAGAGCUCAACACAGCGUGGCAAAGUGGCUGUGGCUAGACUGCCUCUCUGGAUUCCUCGUCACUCAGCAGGGCAUCUCUGAGAGAAAUGCC [U20A G35C], 1.12.
In the case of UACGUAGGUGGUUUUCCCCAGAUAGUGCUAAGGGGGCCUGGAAGUUUGGACUGGGCAGAGCUCAACACAGCGUGGCAAAGUGGCUGUGGCUAGACUGCCUCUCUGGAUUCCUCAUCACUCAGCAGGGCAUCUCUGAGAGAAAUGCC [U20A G114A], the self-cleavage was 1.4.
The result for UACGUAGGUGGUUUUCCCCAGAUAGUGCUAAGGGGGCCUGGAAGUUUGGACUGGGCAGAGCUCAACACAGCGUGGCAAAGUGGCUGUGGCUAGACUGCCUCUCUGGACUCCUCGUCACUCAGCAGGGCAUCUCUGAGAGAAAUGCC [U20A U108C] reads 1.95; that for UACGUAGGUGGUUUUCCCCAGAUAGUGCUAAGGGGGCCUGGAAGUUUGGACUGGGCAGAGCUCAACACAGCGUGGCAAAGCGGCUGUGGCUAGACUGCCUCUCUGGAUUCCUCGUCACUCAGCAGGGCAUCUCUGAGAGAAAUGCC [U20A U81C], 0.84.
In the case of UACGUAGGUGGUUUUCCCCAGAUAGUGCUAAGGGGGCCUGGAAGUUUGGACUGGGCAGAGCUCAACACAGCGUGGCAAAGUGGCUGUGGCUAGACUGCCUCUCUGGAUUCCUCGUCACUCAGCAGGGCAUCUCUGAUAGAAAUGCC [U20A G137U], the self-cleavage amounted to 0.85.
UACGUAGGUGGUUUUCCCCAGAUAGUGCUAAGGGGGCCUGGAAGUUUGGACUGGGCAGAGCUCAACACAGCGUGGCAAAGUGGCUGUGGCUAGACAGCCUCUCUGGAUUCCUCGUCACUCAGCAGGGCAUCUCUGAGAGAAAUGCC [U20A U96A]: the self-cleavage was 0.05.
With UACGUAGGUGGUUUUCCCCAGAUAGUGCUAAGGGGGCCUGGAAGUUUGAACUGGGCAGAGCUCAACACAGCGUGGCAAAGUGGCUGUGGCUAGACUGCCUCUCUGGAUUCCUCGUCACUCAGCAGGGCAUCUCUGAGAGAAAUGCC [U20A G49A], the self-cleavage worked out at 1.37.
Take UACGUAGGUGGUUUUCCCCAGAUAGUGCUAAGGGGGCCUGGAAGUUUGGACUGGGCAGAGCUCAACACAGCGUGGCAAAGUGGCUGUGGCUAGACUCCCUCUCUGGAUUCCUCGUCACUCAGCAGGGCAUCUCUGAGAGAAAUGCC [U20A G97C]: the self-cleavage is 0.34.
In the case of UACGUAGGUGGUUUUCCCCAGAUAGUGCUAAGGGGGCCUGCAAGUUUGGACUGGGCAGAGCUCAACACAGCGUGGCAAAGUGGCUGUGGCUAGACUGCCUCUCUGGAUUCCUCGUCACUCAGCAGGGCAUCUCUGAGAGAAAUGCC [U20A G41C], the self-cleavage came to 0.73.
The result for UACGUAGGUGGUUUUCCCCAGAUAGUGCUAAGGGGGCCUGUAAGUUUGGACUGGGCAGAGCUCAACACAGCGUGGCAAAGUGGCUGUGGCUAGACUGCCUCUCUGGAUUCCUCGUCACUCAGCAGGGCAUCUCUGAGAGAAAUGCC [U20A G41U] reads 0.96.
The result for UACGUAGGUGGUUUUCCCCAGAUAGUGCUAAGGGGGCCUGGAAGUUUGGACUGGGCAGAGCUCAACACAGCGUGGCAAAGUGGCUGCGGCUAGACUGCCUCUCUGGAUUCCUCGUCACUCAGCAGGGCAUCUCUGAGAGAAAUGCC [U20A U87C] reads 0.31.
As to UACGUAGGUGGUUUUCCCCAGAUAGUGCUAAGGGGGCCUGGAAGUUUGGACUGGGCAGAGCUCAACACAGCGUGGCAAAGUGGCUGAGGCUAGACUGCCUCUCUGGAUUCCUCGUCACUCAGCAGGGCAUCUCUGAGAGAAAUGCC [U20A U87A], the self-cleavage was 0.11.
Consider UACGUAGGUGGUUUUCCCCAGAUAGUGCUAAGGGGGCCUGGAAGUUUGGACUGGGCAGAGCUCAACACAGCGUGGCAAAGUGGCUGGGGCUAGACUGCCUCUCUGGAUUCCUCGUCACUCAGCAGGGCAUCUCUGAGAGAAAUGCC [U20A U87G], for which the self-cleavage stood at 0.21.
The result for UACGUAGGUGGUUUUCCCCAGAUAGUGCUAAGGGGGCCUGGAAGUUUGGACUGGGCAGAGCUCAACACAGCGUGGCAAAGUGGCUGUGGCUAGACUGCCUCUCUGGAUUCCUCGUCACUCAGCAGGGCAUCCCUGAGAGAAAUGCC [U20A U132C] reads 1.49; that for UACGUAGGUGGUUUUCCCCAGAUAGUGCUAAGGGGGCCUGGAAGUUUGGACUGGGCAGAGCUCAACACAGCGUGGCAAAGUGGCUGUGGCUAGACUGCCUCUCUGGAUUCCUCGUCACUCAGCAGGGCAUCUCCGAGAGAAAUGCC [U20A U134C], 1.32; that for UACGUAGGUGGUUUUCCCCAGAUAGUGCUAAGGGGGCCUGGAAGUUUGGACUGGGCAGAGCUCAACACAGCGUGGCAAAGUGGCUGUGGCUAGACUGCCUCUCUGGAUUCCACGUCACUCAGCAGGGCAUCUCUGAGAGAAAUGCC [U20A U112A], 1.82.
UACGUAGGUGGUUUUCCCCAGAUAGUGCUAAGGGGGCCUGGAAGUUUGGACUGGGCAGAGCUCAACACAGCGUGGCAAAGUGGCUGUGGCUAGACUGCCUCUCUGGAUUCCUCGACACUCAGCAGGGCAUCUCUGAGAGAAAUGCC [U20A U115A]: the self-cleavage stood at 2.02.
For UACGUAGGUGGUUUUCCCCAGAUAGUGCUAAGGGGGCCUGGAAGAUUGGACUGGGCAGAGCUCAACACAGCGUGGCAAAGUGGCUGUGGCUAGACUGCCUCUCUGGAUUCCUCGUCACUCAGCAGGGCAUCUCUGAGAGAAAUGCC [U20A U45A], the self-cleavage was 1.05.
As to UACGUAGGUGGUUUUCCCCAGAUAGUGCUAAGGGGGCCUGGAAGUUUGGACUGGGCAGAGCUCAACACAGCGUGGCAAAGUGGCUGUGGCUAGACUGCCUCUCCGGAUUCCUCGUCACUCAGCAGGGCAUCUCUGAGAGAAAUGCC [U20A U104C], the self-cleavage stood at 0.93.
As for UACGUAGGUGGUUUUCCCCAGAUAGUGCUAAGUGGGCCUGGAAGUUUGGACUGGGCAGAGCUCAACACAGCGUGGCAAAGUGGCUGUGGCUAGACUGCCUCUCUGGAUUCCUCGUCACUCAGCAGGGCAUCUCUGAGAGAAAUGCC [U20A G33U], the self-cleavage came to 0.66.
For UACGUAGGUGGUUUUCCCCAGAUAGUGCUAAGGGGGCCUGGAAGUCUGGACUGGGCAGAGCUCAACACAGCGUGGCAAAGUGGCUGUGGCUAGACUGCCUCUCUGGAUUCCUCGUCACUCAGCAGGGCAUCUCUGAGAGAAAUGCC [U20A U46C], the self-cleavage was 1.49.
Consider UACGUAGGUGGUUUUCCCCAGAUAGUGCUAAGGGGGCCUGGAAGUAUGGACUGGGCAGAGCUCAACACAGCGUGGCAAAGUGGCUGUGGCUAGACUGCCUCUCUGGAUUCCUCGUCACUCAGCAGGGCAUCUCUGAGAGAAAUGCC [U20A U46A], for which the self-cleavage worked out at 0.96.
For UACGUAGGUGGUUUUCCCCAGAUAGUGCUAAGGGGGCCUGGAAGUUUGGACUGGGCAGAGCUCAACACAGCGUGGCAAAGUGGCUGUGGCUAGACUGCCUCUCUGGAUUCCUCGUCACUCAGCAGGGCAUCUCUUAGAGAAAUGCC [U20A G135U], the self-cleavage worked out at 0.43.
Turning to UACGUAGGUGGUUUUCCCCAGAUAGUGCCAAGGGGGCCUGGAAGUUUGGACUGGGCAGAGCUCAACACAGCGUGGCAAAGUGGCUGUGGCUAGACUGCCUCUCUGGAUUCCUCGUCACUCAGCAGGGCAUCUCUGAGAGAAAUGCC [U20A U29C], the self-cleavage stood at 1.09.
On to UACGUAGGUGGUUUUCCCCAGACAGUGCUAAGGGGGCCUGGAAGUUUGGACUGGGCAGAGCUCAACACAGCGUGGCAAAGUGGCUGUGGCUAGACUGCCUCUCUGGAUUCCUCGUCACUCAGCAGGGCAUCUCUGAGAGAAAUGCC [U20A U23C], for which the self-cleavage turned out to be 0.83.
In the case of UACGUAGGUGGUUUUCCCCAGAUAGUGCUAAGGGGGCCUGGAAGUUUGGACUGGGCAGAGCUCAACACAGCGUGGCAAAGUGGCUGUGGCUAGACUGCCUCUCUGGAUUCCUCGUCACUCAGCAGGGCAUCUCUGAGAAAAAUGCC [U20A G139A], the self-cleavage came to 0.53.
In the case of UACGUAGGUGGUUUUCCCCAGAUAGUGCUAAGGGGGCCUGGAAGUUUGGACUGGGCAGAGCACAACACAGCGUGGCAAAGUGGCUGUGGCUAGACUGCCUCUCUGGAUUCCUCGUCACUCAGCAGGGCAUCUCUGAGAGAAAUGCC [U20A U62A], the self-cleavage amounted to 0.07.
In the case of UACGUAGGUGGUUUUCCCCAGAUAGUGCUAAGGGGGCCAGGAAGUUUGGACUGGGCAGAGCUCAACACAGCGUGGCAAAGUGGCUGUGGCUAGACUGCCUCUCUGGAUUCCUCGUCACUCAGCAGGGCAUCUCUGAGAGAAAUGCC [U20A U39A], the self-cleavage came out at 0.84.
The result for UACGUAGGUGGUUUUCCCCAGAUAGUGCUAAGGGGGCCUGGAAGUUAGGACUGGGCAGAGCUCAACACAGCGUGGCAAAGUGGCUGUGGCUAGACUGCCUCUCUGGAUUCCUCGUCACUCAGCAGGGCAUCUCUGAGAGAAAUGCC [U20A U47A] reads 1.07; that for UACGUAGGUGGUUUUCCCCAGAUAGUGCUAAGGGGGCCUGGAAGUUCGGACUGGGCAGAGCUCAACACAGCGUGGCAAAGUGGCUGUGGCUAGACUGCCUCUCUGGAUUCCUCGUCACUCAGCAGGGCAUCUCUGAGAGAAAUGCC [U20A U47C], 1.31.

Values taken from the RNAGym collection of RNA variant scans (doi:10.7554/elife.90254).
